How the values were obtained:
Test in all cases: co-IP with anti-FLAG, N-FLAG B3GNT2, mass spectrometry
[1] = molecular target: T1, LGALS7B (human, UniProt P47929 1-136)
T1 construct: also called NP_001035972.1

[2] = molecular target: T2, CALML5 (human, UniProt Q9NZT1 2-146)
T2 construct: also called NP_059118.2
T2 sequence (looked up): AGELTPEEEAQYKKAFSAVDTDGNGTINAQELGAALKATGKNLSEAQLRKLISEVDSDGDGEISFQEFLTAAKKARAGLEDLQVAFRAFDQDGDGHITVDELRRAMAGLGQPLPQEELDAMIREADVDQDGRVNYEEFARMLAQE

[3] = molecular target: T3, DHX9 (human, UniProt Q08211 1-1270)
T3 construct: also called NP_001348.2

[4] = molecular target: T4, TM9SF1 (human, UniProt O15321-2 28-489, limits assumed)
T4 construct: also called NP_001014842.1 (+1)

[5] = molecular target: T5, TPM2 (human, UniProt P07951-2 1-284, limits assumed)
T5 construct: also called NP_001288155.1

[6] = molecular target: T6, TTC13 (human, UniProt Q8NBP0-2 1-806, limits assumed)
T6 construct: also called NP_001116307.2 (+5)
T6 sequence (looked up): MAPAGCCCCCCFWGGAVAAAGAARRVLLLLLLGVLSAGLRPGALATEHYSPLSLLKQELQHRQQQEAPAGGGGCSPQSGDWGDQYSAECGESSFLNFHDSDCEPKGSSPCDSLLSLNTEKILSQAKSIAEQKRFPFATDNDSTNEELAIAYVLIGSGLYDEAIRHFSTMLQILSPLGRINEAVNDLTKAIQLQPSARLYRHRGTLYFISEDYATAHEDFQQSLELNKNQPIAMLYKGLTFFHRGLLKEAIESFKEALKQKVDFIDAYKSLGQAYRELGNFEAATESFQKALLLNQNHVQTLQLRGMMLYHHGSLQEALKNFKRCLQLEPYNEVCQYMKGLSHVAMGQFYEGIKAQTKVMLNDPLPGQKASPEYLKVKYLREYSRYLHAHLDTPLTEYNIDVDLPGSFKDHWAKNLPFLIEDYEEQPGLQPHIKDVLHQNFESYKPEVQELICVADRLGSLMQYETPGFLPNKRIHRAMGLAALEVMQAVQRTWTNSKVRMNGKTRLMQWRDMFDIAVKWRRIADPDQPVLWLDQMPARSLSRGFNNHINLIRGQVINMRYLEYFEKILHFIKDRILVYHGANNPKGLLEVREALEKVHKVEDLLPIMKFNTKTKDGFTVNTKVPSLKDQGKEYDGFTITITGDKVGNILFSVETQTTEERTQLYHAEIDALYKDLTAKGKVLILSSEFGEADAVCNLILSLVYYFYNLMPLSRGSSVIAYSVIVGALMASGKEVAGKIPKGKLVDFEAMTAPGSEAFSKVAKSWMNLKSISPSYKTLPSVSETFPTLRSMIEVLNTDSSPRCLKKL

[7] = molecular target: T7, CPSF7 (human, UniProt Q8N684 1-471)
T7 construct: also called NP_001129512.1 (+5)
T7 sequence (looked up): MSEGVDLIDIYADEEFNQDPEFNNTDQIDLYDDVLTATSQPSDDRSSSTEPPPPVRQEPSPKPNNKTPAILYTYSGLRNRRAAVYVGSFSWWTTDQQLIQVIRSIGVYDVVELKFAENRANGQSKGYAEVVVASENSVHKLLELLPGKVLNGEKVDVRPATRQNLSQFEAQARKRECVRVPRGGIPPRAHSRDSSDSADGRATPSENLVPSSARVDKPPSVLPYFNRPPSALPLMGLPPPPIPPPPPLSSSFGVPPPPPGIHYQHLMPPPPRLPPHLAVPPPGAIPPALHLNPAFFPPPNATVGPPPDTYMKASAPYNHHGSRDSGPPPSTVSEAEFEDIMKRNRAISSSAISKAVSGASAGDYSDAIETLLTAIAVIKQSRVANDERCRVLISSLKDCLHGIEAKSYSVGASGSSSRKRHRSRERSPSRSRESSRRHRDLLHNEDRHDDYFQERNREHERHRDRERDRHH

[8] = molecular target: T8, CLTC (human, UniProt Q00610 2-1675, limits assumed)
T8 construct: also called NP_001275582.1 (+2)

B1: N-terminal FLAG tagged B3GNT2 (enzyme, human, UniProt Q9NY97 1-397, looked up)
chain: MSVGRRRIKLLGILMMANVFIYFIMEVSKSSSQEKNGKGEVIIPKEKFWKISTPPEAYWNREQEKLNRQYNPILSMLTNQTGEAGRLSNISHLNYCEPDLRVTSVVTGFNNLPDRFKDFLLYLRCRNYSLLIDQPDKCAKKPFLLLAIKSLTPHFARRQAIRESWGQESNAGNQTVVRVFLLGQTPPEDNHPDLSDMLKFESEKHQDILMWNYRDTFFNLSLKEVLFLRWVSTSCPDTEFVFKGDDDVFVNTHHILNYLNSLSKTKAKDLFIGDVIHNAGPHRDKKLKYYIPEVVYSGLYPPYAGGGGFLYSGHLALRLYHITDQVHLYPIDDVYTGMCLQKLGLVPEKHKGFRTFDIEEKNKNNICSYVDLMLVHSRKPQEMIDIWSQLQSAHLKC
notes: FLAG-tagged ORF overexpressed in cells; pulled down from lysate with mouse anti-FLAG; also called N-FLAG B3GNT2; N-term FLAG; not shown: N-terminal FLAG tag
B1 was tested, and the “co-IP mass spectrometry count” value [1] was 7, the “co-IP mass spectrometry count” value [2] was 0 and the “co-IP mass spectrometry count” value [3] was 0.

B2: N-terminal FLAG tagged B3GNT2 (enzyme, human, UniProt Q9NY97 1-397, looked up)
chain: MSVGRRRIKLLGILMMANVFIYFIMEVSKSSSQEKNGKGEVIIPKEKFWKISTPPEAYWNREQEKLNRQYNPILSMLTNQTGEAGRLSNISHLNYCEPDLRVTSVVTGFNNLPDRFKDFLLYLRCRNYSLLIDQPDKCAKKPFLLLAIKSLTPHFARRQAIRESWGQESNAGNQTVVRVFLLGQTPPEDNHPDLSDMLKFESEKHQDILMWNYRDTFFNLSLKEVLFLRWVSTSCPDTEFVFKGDDDVFVNTHHILNYLNSLSKTKAKDLFIGDVIHNAGPHRDKKLKYYIPEVVYSGLYPPYAGGGGFLYSGHLALRLYHITDQVHLYPIDDVYTGMCLQKLGLVPEKHKGFRTFDIEEKNKNNICSYVDLMLVHSRKPQEMIDIWSQLQSAHLKC
notes: FLAG-tagged ORF overexpressed in A375 cells; pulled down from the lysate with mouse anti-FLAG; also called N-FLAG B3GNT2; N-term FLAG; not shown: N-terminal FLAG tag
In the case of B2, the “co-IP/MS count, N-term FLAG” value [4] is reported as 0, the “co-IP/MS count, N-term FLAG” value [5] is reported as 0 and the “co-IP/MS count, N-term FLAG” value [6] is reported as 0. For the same binder, the “co-IP/MS count, N-term FLAG” value [7] was 12 and the “co-IP/MS count, N-term FLAG” value [8] was 6.

Source: patent publication US20240261333A1 (published 2024)
